Reference: patent US11898183B2, “Programmed microorganisms to attenuate a disease” (priority 2020, dated 2024)

B1: CCoAOMT Chamaecyparis formosensis: Caffeoyl CoA O-methyltransferase (CCoAOMT) from Chamaecyparis formosensis (protein)
chain: MATVEATKDSTQQVSRHQEVGHKSLLQSDALYQYILETSVYPREPEPMRELREITAKHPWNLMTTSADEGQFLHLLLKLINAKNTMEIGVYTGYSLLSTALALPDDGKILAMDINRENYELGLPVIQKAGVAHKIDFREGPALPVLDQMLENKEMHGSFDFIFVDADKDNYLNYHKRLIDLVKIGGVIGYDNTLWNGSVVAPPDAPMRKYVRYYRDFVIELNKALAADPRIEISQIPVGDGITLCRRII
modifications: Depicts the nucleic acid sequence of Caffeoyl CoA O-methyltransferase (CCoAOMT) of Chamaecyparis formosensis
B2: CCoAOMT Eleocharis dulcis: Caffeoyl CoA O-methyltransferase (CCoAOMT) from Eleocharis dulcis (protein)
chain: MSTTTTTQTKTETQSQTGAQNGAEQQTRHSEVGHKSLLQSDALYQYILETSVYPREPECMKELRDITAKHPWNLMTTSADEGQFLNLLLKLIGAKKTMEIGVYTGYSLLATALAIPEDGTILAMDINRENYELGLPVIEKAGVAHKIDFREGPALPVLDQLIEDPANLGSFDFIFVDADKDNYLNYHKRLIELVKVGGVIGYDNTLWNGSVVLPADAPMRKYIRYYRDFVLELNKALAADPRIEISQLPVGDGITLCRRVK
modifications: Depicts the nucleic acid sequence encoding Caffeoyl CoA O-methyltransferase (CCoAOMT)
B3: DIRPLR Linum usitatissimum: Bifunctional pinoresinol-lariciresinol reductase (DIRPLR) from Linum usitatissimum (protein, listed as Linum usitatissimum)
chain: MGRCRVLVVGGTGYIGKRIVKASIEHGHDTYVLKRPETGLDIEKFQLLLSFKKQGAHLVEASFSDHESLVRAVKLVDVVICTVSGAHSRSLLLQLKLVEAIKEAGNVKRFIPSEFGMDPARMGDALEPGRETFDLKMVVRKAIEDANIPHTYISANCFGGYFVGNLSQLGPLTPPSDKVTIYGDGNVKVVYMDEDDVATYTIMTIEDDRTLNKTMYFRPPENVITHRQLVETWEKLSGNQLQKTELSSQDFLALMEGKDVAEQIVIGHLYHIYYEGCLTNFDIDADQDQVEASSLYPEVEYTRMKDYLMIYL
B4: SDH Juglans regia: Secoisolariciresinol dehydrogenase (SDH) from Juglans regia (protein, listed as Juglans regia)
chain: MNGTSSLLAPIAKRLAGKVALITGGASGIGESTARLFAEQGAKVIIADVQDELGFSVSQDKSINGAISYIHCDVTSESDVQNAVNTAVSKHGKLDIMFNTAGCTGQNKASILDHEQKDYKTVFDVNVLGSFLGAKHAAKVMIPVKRGTILFTASCVTESHGLASHSYTASKHAVVGLTKNLCVELGQYGIRVNCISPYGAATPLFLKGMGIDKKEKAEEILSSAANLKGPVLEAGDLAEAALFLASEESKYVSVLNLVVDGGYSATNVAFTETIQKFFT
B5: CYP719 Cinnamomum micranthum: CYP719 from Cinnamomum micranthum (protein)
chain: MEAIWTAVAIGIAAAVLMAFRGRQRQRLSRKPTQWPPGPTRLPLIGNMHQILLKGGDPFHVAINKLAQVYGPLMTVWFGTRQPTIIVSDHNLVWEVLVSKSADYAAREIPITLKPSLADFRTIVSSNAGPLWHSLRRGLQNGAIGPHSLSLQAPFQESDMAQMINNMIKEANLNGGVVKPFPHIRRAIIKLLARICFGCDFSDEEFDATMDFMVEEALRYSDDSRILDTFPPARFLPSVKRAVMQMEKVKLRLMECIGRPLDSPLPPTCYAHFLLSQSFPREVAIFSIFELFLLGVDSTGSTTMWGLGLLMQNQEAQQKLYQEIREHASCNEKGVVKVEELGKLEYLQAVAKETMRMKPIAPLAVPHQAARDTTLDGLHVAEGTTVLANLYALHYDPKVWDEPERFKPERFLESSKEFLGKRGQYSFLPFGAGMRACAGMEVGKLQLPFAICNLVNAFNWSNVVEKEAPKLIEGFSFILSMKTPLEARIVPRGI
modifications: Depicts the nucleic acid sequence encoding CYP719 of Cinnamomum micranthum
B6: OMT Sinopodophyllum hexandrum: O-methyltransferase 3 (OMT) from Sinopodophyllum hexandrum (protein)
chain: MEMAPTMDLEIRNGNGYGDSGEELLAAQAHIYNHIFNFISSMALKCAVELNIPEILHNHQPKAVTLSELVQALQIPQAKSACLYRLLRILVHSGFFAITKIQSEGDEEGYLPTLSSKLLLKNHPMSMSPCLLGLVNPTMVAPMHFFSDWFKRSDDMTPFEATHGASLWKYFGETPHMAEIFNEAMGCETRLAMSVVLKECKGKLEGISSLVDVGGGTGNVGRAIAEAFPNVKCTVLDLPQVVGNLKGSNNLEFVSGDMFQFIPPADVVFLKWILHDWNDEECIKILKRCKEAIPSKEEGGKLIIIDMVVNDHNKGSYESTETQLFYDLTLMALLTGTERTETEWKKLFVAAGFTSYIISPVLGLKSIIEVFP
modifications: Depicts the nucleic acid sequence encoding O-methyltransferase 3 (OMT) of Sinopodophyllum hexandrum
notes: O-methyltransferase 3 (OMT) from Sinopodophyllum hexandrum
B7: CYP71 Cinnamomum micranthum: CYP71 from Cinnamomum micranthum (protein)
chain: MALLLSLLFFASALIFLLKLNGQRANKTDVPPSPPKLPLIGNLHQLGTLPHRSLRSLAGKYGPLMLLYLGRIPTLIVSSEEMAEQIMKTHDLIFASRPSITAAKELLYGCTDLAFASYGEYWRQVRKMCVLELLSIKRVNSFRSIMEEEVGLMIERISQSSSTGAAVNLAELFLSLTGGTIARAALGKKYEGEAEEGRNKYADLVKELHALLGAFSVGDYFPSLAWVDVVTGLHGKLKRNSRELDRFLDQVIEHHLMRPLDGCDVGEHTDLVDVMLQVQKDSNRDIHLTRDNIKAIILDMFSAGTDTTALTLEWVMAELAKHPNVMKKAQGEVRRVVDVKANISEEHLCQLNYMKSIIKETLRLHPPAPLLVPRESTTNVKIQNFHIPPKTRVFINAYAIGRDPTSWENPEEFLPERFANNSVDFKGQDFQFIPFGAGRRGCPGLSFAITSLELALANLLYWFDWELPQGVTEEDLDMSEALGITVHKKLPLYLVPKNHFS
modifications: Depicts the nucleic acis sequence encoding CYP71 of Cinnamomum micranthum
B8: 2-ODD Nitrospira moscoviensis: 2-oxoglutarate/Fe(II)-dependent dioxygenase (2-ODD) from Nitrospira moscoviensis (protein, listed as Nitrospira moscoviensis)
chain: MVSNMAMGITEAVDRAVAALDVDRLHREYWEQNEFLVIRQFLPRAFVEEVLVPQAQGVKTELNRNYIPGHKKGGSVSYYTVRRRAPLFLDLYRSDSFRAFLDRLVDAKLLLCPENDPHSCALYYYTEPGDHIGFHYDTSYYKGARYTILMGLVDRSTQCKLVCELFKDHPTKAPQRLELITEPGDMVIFNGDKLWHAVTPLGEGEERIALTMEYVTNPEMGAFKRLYSNLKDSFAYFGLKTVFKQALAKKSS

Tested on: pathway specific substrates
Experiment: Enzyme functionality of pathway enzyme homologs and fusion constructs in lysed E. coli cell extracts, product by HPLC
Type: biochemical, E. coli BL21
Details: protein expressed in E. coli, lysed cell extract, pathway specific substrate, HPLC
Method: As per one of the possible implementations of the present disclosure, two proteins—cinnamate-4-hydroxylate (C4H) and 4-coumaroyl CoA-ligase (4CL) were expressed as one fusion protein. Also, other two proteins which were expressed as one fusion protein were hydroxycinnamoyl-CoA quinate hydroxycinnamoyltransferase (HCT) and p-coumaroyl quinate 3′-hydroxylase (HCTC3H). The fusion gene and the corresponding fusion protein was prepared using the following method. […] The enzyme fusion constructs were made for the selected genes (Table 5). Pathway genes and the fusion constructs were individually cloned in E. coli expression vector pET28+ under T7 promoter and transformed in E. coli BL21 cells. Recombinant bacterial cells were induced with IPTG and enzyme functionality was tested with pathway specific substrates (Table 5) using lysed E. coli cell extracts. HPLC analysis was carried out to quantify the product formation and in turn shortlisting of efficient enzymes for functional pathway assembly towards Etoposide in E. coli.
The E. coli transformants were grown overnight at 37° C. in 1 ml of M9 minimal media containing ampicillin (100 mg/1), in 96-well format. The next day, 150 μl of each culture was inoculated into 3 ml M9 minimal media containing ampicillin (100 mg/1), IPTG 0.1 mM in 24-well format, and incubated at 30° C. and 200 rpm for ˜20 hours. The following day, cells were spun down and pellets were resuspended in 100 μl of lysis buffer containing 10 mM Tris-HCl pH 8, 5 mM MgCl2, 1 mM CaCl2) and complete mini protease inhibitor EDTA-free (3 tablets/100 ml) (Hoffmann-La Roche, Basel, Switzerland) and frozen at −80° C. for at least 15 minutes to promote cell lysis. Pellets were thawed at room temperature and 50 μl of DNase mix (1 μl of 1.4 mg/ml DNase in H2O (˜80000 u/ml), 1.2 μl of MgCl2 500 mM and 47.8 μl of 4×PBS buffer solution) was added to each well. Plates were shaken at 500 rpm for 5 min at room temperature to allow degradation of genomic DNA. Plates were spun down at 4000 rpm for 30 min at 4° C. and six μl of the lysates were used in in vitro using appropriate substrates for enzymes as per Table 6. In each case, the resulting compounds were measured by HPLC. Results were analysed in comparison with the lysates expressing the corresponding controls (the empty plasmid). […]

Molecule | enzyme activity [%] | enzyme activity (in words)
B1 | 95 | –
B2 | 61 | –
B3 | – | desirable enzyme activity
B4 | 99 | –
B5 | – | highest enzyme activity
B6 | 99 | –
B7 | 94 | –
B8 | 96 | –
